Test [1] concerns the target T1, EGFR expressed on H292 cells (human, UniProt P00533 25-1210).
T1 construct: whole, on cells; H292 cells also express c-Met; also called epidermal growth factor receptor
As to the kind of experiment: flow cytometry on H292 cells, blocking of biotin-h.EGF (100 nM) binding to EGFR; EGFRxMET-136; blocking of EGF on H292 cells. How it is done: (§1) H292 cells, which were human non-small cell lung cancer cells purchased from Procell, were capable of expressing EGFR and c-Met receptors. H292 cells were expanded to a suitable density, digested and detached from the cell culture flask, resuspended to 1×10⁶ cells/ml, added to a 96-well flow plate, 100 μL per well, and centrifuged for later use. The antibody to be tested was subjected to 3-fold dilution with PBS, starting from 200 nM, and the diluted sample was added to the 96-well flow plate with cells, 100 μL/well, and incubated at 25° C. for 60 min. […] Streptavidin-FITC (purchased from Jackson) was diluted 100 times with PBS and added to the plate, 100 µL/well, incubated at 4° C. for 30 min, and washed twice with PBS. 100 μL/well of PBS was added to resuspend the cells, then the cells were detected on a CytoFlex (Beckman) flow cytometer, and the corresponding MFI was calculated.
In general terms: Flow cytometry measures light scatter and fluorescence of single cells or particles in a stream.

Test [2] addresses T1, EGFR expressed on H292 cells. Nature of the test: flow cytometry on H292 cells, blocking of biotin-h.EGF (100 nM) binding to EGFR; EGFRxMET-187; blocking of EGF on H292 cells. On the procedure: as §1
For test [3], the target named is T2, EGFR and c-Met receptors co-expressed on A375 or H292 cells (human, UniProt P00533 25-1210; P08581 25-1390).
T2 construct: whole, on cells; Not a complex; also called EGFR and c-Met positive tumor cells
As to the kind of experiment: flow cytometry, binding to A375 cells (low EGFR and c-Met expression); A375 cells. The text has this: (§2) A375 cells were human malignant melanoma cells and purchased from Addexbio, which were capable of low expression of EGFR and c-Met receptors. H292 cells were human lung adenocarcinoma cells and purchased from procell, which were capable of high expression of EGFR and c-Met receptors. HCC827 cells were human non-small cell lung cancer cells and purchased from the Cell Bank of the Chinese Academy of Sciences, which were capable of high expression of EGFR and c-Met receptors. The expanded cells were adjusted to an appropriate cell density, and added to a 96-well flow plate. After centrifugation, the gradiently diluted samples to be tested were added and incubated at 4° C. for 1 hour. The cells were washed twice with PBS, then a fluorescent secondary antibody, diluted to an appropriate concentration, was added, incubated at 4° C. for 30 min, and washed twice with PBS. The cells were resuspended by PBS, and detected on a CytoFlex flow cytometer, and corresponding MFI was calculated.

The target of test [4] is T2, EGFR and c-Met receptors co-expressed …. Nature of the test: flow cytometry, binding to H292 cells (high EGFR and c-Met expression).
Source text: as §2

Test [5] has the same target. Nature of the test: flow cytometry, binding to A375 cells (low EGFR and c-Met expression).
Source text: as §2

A further test concerns the target T3, monkey c-MET protein (monkey, UniProt A0A2K5UM36 25-932).
T3 construct: The construct is not described
Nature of the test: ForteBio (BLI) affinity assay, monkey c-Met protein. How it is done: (§3) After the antibodies were prepared, the ForteBio affinity assay was performed according to the reported method (Estep, P et al., Determination of antibody-antigen affinity and epitope binding based on high-throughput methods. MAbs, 2013.5(2): p. 270-8).
A general note: In BLI a coated tip is dipped into the sample, and binding shifts an interference pattern.

The target of the next test is T4, human c-MET protein (human, UniProt P08581 25-932).
T4 construct: The construct is not described; also called cellular mesenchymal epithelial transition factor (c-Met) antigen
T4 sequence (P08581 25-932 limits assumed): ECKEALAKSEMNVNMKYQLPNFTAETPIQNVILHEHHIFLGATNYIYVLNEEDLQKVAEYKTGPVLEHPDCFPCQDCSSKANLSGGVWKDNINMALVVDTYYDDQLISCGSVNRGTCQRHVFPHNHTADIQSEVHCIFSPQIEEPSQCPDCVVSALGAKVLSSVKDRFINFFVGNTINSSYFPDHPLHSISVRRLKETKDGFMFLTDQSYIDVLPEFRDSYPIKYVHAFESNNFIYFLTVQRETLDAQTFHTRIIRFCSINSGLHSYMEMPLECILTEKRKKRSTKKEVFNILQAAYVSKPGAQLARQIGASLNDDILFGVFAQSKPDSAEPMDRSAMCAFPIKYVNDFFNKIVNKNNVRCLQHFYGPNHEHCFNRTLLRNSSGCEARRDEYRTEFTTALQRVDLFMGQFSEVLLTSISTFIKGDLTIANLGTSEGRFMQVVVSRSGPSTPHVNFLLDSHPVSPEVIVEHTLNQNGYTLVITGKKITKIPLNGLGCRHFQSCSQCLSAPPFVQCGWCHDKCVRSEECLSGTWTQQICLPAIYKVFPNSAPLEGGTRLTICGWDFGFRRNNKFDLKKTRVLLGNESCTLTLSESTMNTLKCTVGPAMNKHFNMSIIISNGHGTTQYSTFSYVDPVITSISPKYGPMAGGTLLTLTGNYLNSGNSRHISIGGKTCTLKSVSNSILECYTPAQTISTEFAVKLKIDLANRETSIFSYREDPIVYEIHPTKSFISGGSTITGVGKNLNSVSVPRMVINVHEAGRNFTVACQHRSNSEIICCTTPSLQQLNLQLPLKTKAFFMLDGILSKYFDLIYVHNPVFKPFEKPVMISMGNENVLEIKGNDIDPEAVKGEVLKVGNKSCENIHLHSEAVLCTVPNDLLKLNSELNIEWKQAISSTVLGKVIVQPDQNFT
Nature of the test: ForteBio (BLI) affinity assay, human c-Met protein. On the procedure: as §3

Test [6] concerns the target T1, EGFR expressed on H292 cells. As to the kind of experiment: flow cytometry on H292 cells; antibody titrated, then 100 nM Biotin-h.EGF as the blocked ligand, detected with Streptavidin-FITC. On the procedure:
as §1

A word on the IC50: it is the concentration at which inhibition is half-maximal. As a reminder, the EC50 is the concentration that produces a half-maximal response. For orientation: Kd means the constant that tells how readily two partners part at equilibrium. What is called koff is a measure of how fast the partners let go of each other. The kon is the second-order rate constant of association.

T3 sequence (A0A2K5UM36 entry or part of it limits assumed): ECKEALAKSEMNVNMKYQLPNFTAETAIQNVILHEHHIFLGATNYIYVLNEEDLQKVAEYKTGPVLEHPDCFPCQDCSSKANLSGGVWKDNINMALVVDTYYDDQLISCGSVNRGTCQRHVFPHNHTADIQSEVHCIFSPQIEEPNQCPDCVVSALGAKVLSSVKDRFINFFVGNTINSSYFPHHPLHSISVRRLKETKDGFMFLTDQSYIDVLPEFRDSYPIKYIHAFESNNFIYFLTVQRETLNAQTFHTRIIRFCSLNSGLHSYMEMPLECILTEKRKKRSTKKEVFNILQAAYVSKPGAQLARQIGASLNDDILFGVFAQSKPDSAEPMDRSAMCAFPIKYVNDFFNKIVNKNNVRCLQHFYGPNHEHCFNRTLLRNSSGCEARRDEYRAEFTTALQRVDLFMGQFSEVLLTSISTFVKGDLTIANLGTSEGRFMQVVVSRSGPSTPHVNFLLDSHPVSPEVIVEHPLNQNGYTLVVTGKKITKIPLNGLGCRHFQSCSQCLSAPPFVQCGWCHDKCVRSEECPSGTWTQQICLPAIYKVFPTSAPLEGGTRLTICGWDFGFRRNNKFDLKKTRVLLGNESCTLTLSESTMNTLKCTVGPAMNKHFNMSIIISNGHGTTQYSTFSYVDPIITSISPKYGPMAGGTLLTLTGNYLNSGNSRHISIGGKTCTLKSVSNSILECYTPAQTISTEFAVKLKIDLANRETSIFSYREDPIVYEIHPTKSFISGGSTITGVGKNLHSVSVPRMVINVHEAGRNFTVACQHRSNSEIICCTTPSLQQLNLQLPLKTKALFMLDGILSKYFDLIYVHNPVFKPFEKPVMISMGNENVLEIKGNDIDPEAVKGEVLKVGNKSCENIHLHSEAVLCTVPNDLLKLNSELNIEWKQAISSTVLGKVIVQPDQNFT

B1: EGFRxMET-136 (bispecific antibody, human IgG1, kappa)
heavy 1: not shown
light 1: not shown
heavy 2: not shown
light 2: DIVMTQSPSSVSASVGDRVTITCRASQGISSWLAWYQQKPGKAPKLLIYAVSSLQSGVPSRFSGSGSGTDFTLTISSLQPEDFATYFCQQANSFPLTFGGGTKVEIKRTVAAPSVFIFPPSDEQLKSGTASVVCLLNNFYPREAKVQWKVDNALQSGNSQESVTEQDSKDSTYSLSSTLTLSKADYEKHKVYACEVTHQGLSSPVTKSFNRGEC
notes: 1+1 heterodimeric IgG1-type bispecific
For B1, the IC50 in test [1] is 3.15 nM.

B2: EGFRxMET-187 (bispecific antibody, human IgG1, kappa)
heavy 1: not shown
light 1: not shown
heavy 2: not shown
light 2: DIVMTQSPSSVSASVGDRVTITCRASQGISSWLAWYQQKPGKAPNLLIYAASNLPSGVPSRFSGSGSGTVFTLTISSLQPEDFATYYCQQSNSFPLTFGGGTKVEIKRTVAAPSVFIFPPSDEQLKSGTASVVCLLNNFYPREAKVQWKVDNALQSGNSQESVTEQDSKDSTYSLSSTLTLSKADYEKHKVYACEVTHQGLSSPVTKSFNRGEC
notes: as for B1
For B2, the IC50 in test [2] was found to be 2.9 nM.

B3: EGFRxMET-136 Afu (bispecific antibody, human IgG1, kappa)
heavy 1: not shown
light 1: DIVMTQSPSSVSASVGDRVTITCRASQGISSWLAWYQQKPGKAPKLLIYAVSSLQSGVPSRFSGSGSGTDFTLTISSLQPEDFATYFCQQANSFPLTFGGGTKVEIKRTVAAPSVFIFPPSDEQLKSGRASVVCLLNNFYPREAKVQWKVDNALQSGNSQESVTEQDSKDSTYSLSSRLQLSKADYEKHKVYACEVTHQGLSSPVTKSFNRGEC
heavy 2: not shown
light 2: DIQLTQSPSSLSASVGDRVTITCRASQDISSALVWYQQKPGKAPKLLIYDASSLESGVPSRFSGSESGTDFTLTISSLQPEDFATYYCQQFNSYPLTFGGGTKVEIKRTVAAPSVFIFPPSDEELKSGTASVQCLLNNFYPREAKVQWKVDNALQSGNSQESVTEQDSKDSTYSLSSELTLSKADYEKHKVYACEVTHQGLSSPVTKSFNRGEC
modifications: afucosylated glycan
In test [3], B3 returned a 50% effective concentration (EC50) of 1.35 nM.

B4: EGFRxMET-187 Afu (bispecific antibody, human IgG1, kappa)
heavy 1: not shown
light 1: not shown
heavy 2: not shown
light 2: DIVMTQSPSSVSASVGDRVTITCRASQGISSWLAWYQQKPGKAPNLLIYAASNLPSGVPSRFSGSGSGTVFTLTISSLQPEDFATYYCQQSNSFPLTFGGGTKVEIKRTVAAPSVFIFPPSDEQLKSGTASVVCLLNNFYPREAKVQWKVDNALQSGNSQESVTEQDSKDSTYSLSSTLTLSKADYEKHKVYACEVTHQGLSSPVTKSFNRGEC
modifications: afucosylated glycan
Regarding B4, the EC50 in test [4] worked out at 1.46 nM; in test [5], 1.05 nM.

B5: anti-c-MET antibody 136 (antibody, V domains shown)
VH: EVQLQESGPGLVKPSETLSLTCTVSGGSVTSVNYYWKWIRQPPGKGLEWIGYISYSGNTNYNPSLKSRVTISVDTSKNQFSLKLSSVTAADTAVYYCVRAPYYYMDVWSKGTTVTVSS
VL: DIVMTQSPSSVSASVGDRVTITCRASQGISSWLAWYQQKPGKAPKLLIYAVSSLQSGVPSRFSGSGSGTDFTLTISSLQPEDFATYFCQQANSFPLTFGGGTKVEIK
notes: Candidate from yeast display screening, as tested in the ForteBio assay
In the test with monkey c-MET protein, B5 yielded a Kd of 1.16 nM, a koff of 0.000426 s⁻¹ and a kon of 369000 M⁻¹ s⁻¹. Further, in the test with human c-MET protein, the Kd was determined as 0.0293 nM, the koff stood at 6.71e-06 s⁻¹ and the kon worked out at 229000 M⁻¹ s⁻¹.

B6: anti-c-MET antibody 187 (antibody, V domains shown)
VH: ELQLQESGPGLVKPSETLSLTCTVSGGSISSSSYYWGWIRQSPGKGLEWIGSRYYSGNTYYNPSLKSRVTMSVDTSKNQFSLKLRSVTAADTAVYYCARQVYDYWRDWGQGALVTVSS
VL: DIVMTQSPSSVSASVGDRVTITCRASQGISSWLAWYQQKPGKAPNLLIYAASNLPSGVPSRFSGSGSGTVFTLTISSLQPEDFATYYCQQSNSFPLTFGGGTKVEIK
notes: as for B5
In the test with monkey c-MET protein, B6 came in with a Kd of 2.92 nM, a koff of 0.000947 s⁻¹ and a kon of 324000 M⁻¹ s⁻¹. In the test with human c-MET protein, the Kd came out at 1.68 nM, the koff came out at 0.000369 s⁻¹ and the kon was 220000 M⁻¹ s⁻¹.

B7: Amivantamab analog (bispecific antibody, human IgG1, kappa)
anti-EGFR heavy chain (EGFR-1 Fc): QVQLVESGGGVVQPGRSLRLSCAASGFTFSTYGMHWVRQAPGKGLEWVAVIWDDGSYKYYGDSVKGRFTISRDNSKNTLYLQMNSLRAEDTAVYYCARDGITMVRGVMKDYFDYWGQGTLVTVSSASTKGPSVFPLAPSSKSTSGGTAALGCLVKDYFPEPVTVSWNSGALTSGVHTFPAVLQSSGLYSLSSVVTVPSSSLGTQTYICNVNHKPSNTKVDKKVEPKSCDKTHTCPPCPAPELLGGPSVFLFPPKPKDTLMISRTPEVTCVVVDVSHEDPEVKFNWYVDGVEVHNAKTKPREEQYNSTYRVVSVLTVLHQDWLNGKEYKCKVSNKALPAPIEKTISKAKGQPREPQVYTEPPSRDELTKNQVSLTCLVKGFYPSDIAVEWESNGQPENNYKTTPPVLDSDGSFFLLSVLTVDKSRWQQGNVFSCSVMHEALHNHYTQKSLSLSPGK
anti-EGFR light chain: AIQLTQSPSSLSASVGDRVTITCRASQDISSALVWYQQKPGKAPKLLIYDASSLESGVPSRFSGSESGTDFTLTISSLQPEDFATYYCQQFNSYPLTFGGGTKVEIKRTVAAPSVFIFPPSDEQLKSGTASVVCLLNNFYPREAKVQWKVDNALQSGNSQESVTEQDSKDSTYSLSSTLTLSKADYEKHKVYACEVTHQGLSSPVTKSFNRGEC
anti-cMet control heavy chain (cMet-2 Fc): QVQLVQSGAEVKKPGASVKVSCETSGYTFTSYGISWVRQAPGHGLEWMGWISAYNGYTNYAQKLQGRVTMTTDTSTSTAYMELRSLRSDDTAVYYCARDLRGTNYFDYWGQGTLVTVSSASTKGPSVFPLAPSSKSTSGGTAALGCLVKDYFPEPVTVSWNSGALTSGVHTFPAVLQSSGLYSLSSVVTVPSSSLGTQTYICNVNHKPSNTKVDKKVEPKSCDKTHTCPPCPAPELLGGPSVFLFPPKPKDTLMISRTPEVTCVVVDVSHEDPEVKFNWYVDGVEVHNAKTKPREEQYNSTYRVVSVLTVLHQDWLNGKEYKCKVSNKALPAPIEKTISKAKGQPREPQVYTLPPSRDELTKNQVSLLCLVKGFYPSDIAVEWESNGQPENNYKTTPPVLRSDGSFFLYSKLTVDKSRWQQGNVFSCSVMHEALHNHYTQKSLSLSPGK
anti-cMet control light chain: DIQMTQSPSSVSASVGDRVTITCRASQGISNWLAWFQHKPGKAPKLLIYAASSLLSGVPSRFSGSGSGTDFTLTISSLQPEDFATYYCQQANSFPITFGQGTRLEIKRTVAAPSVFIFPPSDEQLKSGTASVVCLLNNFYPREAKVQWKVDNALQSGNSQESVTEQDSKDSTYSLSSTLTLSKADYEKHKVYACEVTHQGLSSPVTKSFNRGEC
notes: also called control antibody; control molecule Amivantamab
In turn, B7 gave an IC50 in test [6] of 2.64 nM.

The values above are taken from patent publication US20250223366A1 (BIOTHEUS, published 2025).
